Assay results from patent US20260209386A1 (MYTHIC THERAPEUTICS, published 2026).
Where a chain is given by its changes, count along the chain named.

T1: Human PTK7/CCK4 Protein, His Tag, Acro Biosystems PT7-H52H3 (human, UniProt Q13308 31-704)
T1 construct: bought protein; also called Human PTK7 Protein, His Tag, Acro Biosystems; not shown: His tag
T1 sequence: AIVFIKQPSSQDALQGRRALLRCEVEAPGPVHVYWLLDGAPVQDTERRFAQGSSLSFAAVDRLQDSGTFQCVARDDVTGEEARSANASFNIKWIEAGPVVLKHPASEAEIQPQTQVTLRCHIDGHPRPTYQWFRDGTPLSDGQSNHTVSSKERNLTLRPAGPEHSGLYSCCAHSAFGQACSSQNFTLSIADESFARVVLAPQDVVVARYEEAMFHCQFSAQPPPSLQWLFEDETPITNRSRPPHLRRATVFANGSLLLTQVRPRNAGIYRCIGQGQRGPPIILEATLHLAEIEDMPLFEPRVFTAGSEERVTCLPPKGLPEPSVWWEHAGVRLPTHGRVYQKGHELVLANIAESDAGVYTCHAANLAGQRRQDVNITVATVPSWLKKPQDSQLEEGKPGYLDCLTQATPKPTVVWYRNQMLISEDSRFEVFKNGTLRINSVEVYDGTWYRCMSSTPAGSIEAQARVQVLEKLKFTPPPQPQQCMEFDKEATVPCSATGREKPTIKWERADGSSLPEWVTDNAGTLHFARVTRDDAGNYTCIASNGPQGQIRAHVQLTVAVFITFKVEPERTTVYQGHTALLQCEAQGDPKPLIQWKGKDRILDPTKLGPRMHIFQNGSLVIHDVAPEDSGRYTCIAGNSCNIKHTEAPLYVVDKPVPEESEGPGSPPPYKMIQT

T2: Human PTK7 Protein, His Tag, Acro Biosystems (human, UniProt Q13308 31-704)
T2 construct: Bought recombinant protein; also called CCK4; not shown: His tag
T2 sequence: T1 sequence

B1: MYT6162 (antibody, V domains shown)
VH: QVQLVQSGPEVKKPGASVKVSCKASGYTFTDYHVHWVRQAPGKRLEWIGVISTYNDYTYNNQDFKGRVTMTRDTSASTAYMELSRLRSEDTAVYYCARGNSYFYALDYWGQGTSVTVSS
VL: EIVLTQSPATLSLSPGERATLSCRASESVDSYGKSFMHWYQQKPGQAPRLLIYRASNLESGIPARFSGSGSGTDFTLTISSLEPEDFAVYYCQQSNEDPWTFGGGTKLEIK
notes: IgG
B2: MYT6210 (antibody, V domains shown)
VH: B1 VH with H33A
VL: B1 VL with A55H
notes: IgG
B3: MYT6186 (antibody, V domains shown)
VH: B1 VH with H33A, S101H
VL: B1 VL
notes: IgG
B4: MYT6221 (antibody, V domains shown)
VH: B1 VH with H33A
VL: B1 VL with D98H
notes: IgG
B5: MYT6165 (antibody, V domains shown)
VH: B1 VH with H33A, V50H
VL: B1 VL
notes: IgG
B6: MYT6206 (antibody, V domains shown)
VH: B1 VH with H33A
VL: B1 VL with F36H
notes: IgG
B7: MYT6209 (antibody, V domains shown)
VH: B1 VH with H33A
VL: B1 VL with R54H
notes: IgG
B8: MYT6184 (antibody, V domains shown)
VH: B1 VH with H33A, G99H
VL: B1 VL
notes: IgG
B9: MYT6218 (antibody, V domains shown)
VH: B1 VH with H33A
VL: B1 VL with S95H
notes: IgG
B10: MYT6190 (antibody, V domains shown)
VH: B1 VH with H33A, A105H
VL: B1 VL
notes: IgG
B11: MYT6231 (antibody, V domains shown)
VH: QVQLVESGGGVVQPGRSLRLSCAASGFTFSSHGMHWVRQAPGKGLEWVAVIWDDGSNKYYVDSVKGRFTISRDNSKNTLYLQMNSLRAEDTAVYYCARDDYYGSGSFNSYYGTDVWGQGTTVTVSS
VL: EIVLTQSPATLSLSPGERATLSCRASQSVSIYLAWYQQKPGQAPRLLIYDASNRATGIPARFSGSGSGTDFTLTISSLEPEDFAVYYCQQRSNWPPFTFGPGTKVDIK
notes: IgG
B12: MYT6254 (antibody, V domains shown)
VH: B11 VH with H32Y, D99H
VL: B11 VL
notes: IgG
B13: MYT6244 (antibody, V domains shown)
VH: B11 VH with H32Y, Y59H
VL: B11 VL
notes: IgG
B14: MYT6253 (antibody, V domains shown)
VH: B11 VH with H32Y, R98H
VL: B11 VL
notes: IgG
B15: MYT6232 (antibody, V domains shown)
VH: B11 VH with H32Y, G33H
VL: B11 VL
notes: IgG
B16: MYT11134 (antibody, V domains shown)
VH: EVQLVESGGGLVQPGGSLRLSCTASGFSLSTYAMSWVRQAPGKGLEWVGMIYINDNTYYASWAKGRFTISRDTSKNTVYLQMNSLRAEDTAVYFCARDIGIHYYIGVSLWGQGTLVTVSS
VL: EIVMTQSPSTLSASVGDRVIITCQASQSIGTRLSWYQQKPGKAPKLLIYGASKLATGVPSRFSGSGSGAEFTLTISSLQPDDFATYYCLGEYSYTTTDGIAFGQGTKLTVL
notes: MYT9412 HC variant
B17: MYT11177 (antibody, V domains shown)
VH: B16 VH with H102S
VL: B16 VL with D98A
notes: MYT9412 LC alanine variant
B18: MYT11178 (antibody, V domains shown)
VH: B16 VH with H102S
VL: B16 VL with G99A
notes: MYT9412 LC alanine variant
B19: MYT11153 (antibody, V domains shown)
VH: B16 VH with H102S
VL: B16 VL with R32H
notes: MYT9412 LC variant
B20: MYT11166 (antibody, V domains shown)
VH: B16 VH with H102S
VL: B16 VL with Y92H
notes: MYT9412 LC variant
B21: MYT11172 (antibody, V domains shown)
VH: B16 VH with H102S
VL: B16 VL with D98H
notes: MYT9412 LC variant
B22: MYT11152 (antibody, V domains shown)
VH: B16 VH with H102S
VL: B16 VL with T31H
notes: MYT9412 LC variant
B23: MYT11144 (antibody, V domains shown)
VH: B16 VH with D98A, H102S
VL: B16 VL
notes: MYT9412 HC alanine variant
B24: MYT11150 (antibody, V domains shown)
VH: B16 VH with H102S
VL: B16 VL with I29H
notes: MYT9412 LC variant
B25: MYT11137 (antibody, V domains shown)
VH: B16 VH with H102S, I105H
VL: B16 VL
notes: MYT9412 HC variant
B26: MYT11146 (antibody, V domains shown)
VH: B16 VH with H102S
VL: B16 VL with A25H
notes: MYT9412 LC variant
B27: MYT11136 (antibody, V domains shown)
VH: B16 VH with H102S, Y104H
VL: B16 VL
notes: MYT9412 HC variant
B28: MYT11151 (antibody, V domains shown)
VH: B16 VH with H102S
VL: B16 VL with G30H
notes: MYT9412 LC variant
B29: MYT11163 (antibody, V domains shown)
VH: B16 VH with H102S
VL: B16 VL with L89H
notes: MYT9412 LC variant

These binders were tested against T1, Human PTK7/CCK4 Protein, His Tag, Acro … (assay: BLI, antibody on anti-human Fc sensor).

binding result | Binder
no binding (tested: 50 nM PTK7) | B1
no binding (tested: 50 nM PTK7) | B2
no binding (tested: 50 nM PTK7) | B3
no binding (tested: 50 nM PTK7) | B4
no binding (tested: 50 nM PTK7) | B5
no binding (tested: 50 nM PTK7) | B6
no binding (tested: 50 nM PTK7) | B7
no binding (tested: 50 nM PTK7) | B8
no binding (tested: 50 nM PTK7) | B9
no binding (tested: 50 nM PTK7) | B10
no binding (tested: 50 nM PTK7) | B11
no binding (tested: 50 nM PTK7) | B12
no binding (tested: 50 nM PTK7) | B13
no binding (tested: 50 nM PTK7) | B14
no binding (tested: 50 nM PTK7) | B15

Each binder was assayed against T2, Human PTK7 Protein, His Tag, Acro … (assay: BLI, anti-human Fc capture, 50 nM PTK7; 1 = pH dependent binding relative to parent).

binding result | Binder
binds | B16
binds | B17
binds | B18
binds | B19
binds | B20
binds | B21
binds | B22
binds | B23
binds | B24
binds | B25
binds | B26
binds | B27
binds | B28
binds | B29
